Data taken from the supplement of paper PMC12042874.
± gives the uncertainty stated by the source.

test: amyloid nucleation score (Sup35N fusion, yeast selection) (log enrichment); library NNK1; higher = more nucleation; inactive = no reads after selection
Procedure, shortened: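 Sup35N was fused to peptides of 20 random codons and expressed in psi-negative yeast, which were induced with 100 μM copper sulfate for 24 hours and then grown on medium lacking adenine and uracil for 7 days at 30°C. Plasmid inserts from input and output were sequenced on Illumina. The nucleation score is the DiMSum log enrichment of output over input reads, centred on the mode score of non-aggregating sequences. Sequences with under 100 input reads were left out, and random libraries had three technical output replicates.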

IEVDPTNSKKSAPDTHLGSL and IEVKSWYATPNFGSQLSKRD are within error of each other in amyloid nucleation score: -0.001 ± 0.95 for the first, 0.274 ± 0.45 for the second.

IEYCIVSFQSMGE and IFDYSTLECESDEGEAEGMS are within error of each other in amyloid nucleation score: 0.326 ± 0.46 for the first, 0.572 ± 0.81 for the second.

Going from IFHLCFLKGNGSFMLYKRHT to IFRFSNFR, the amyloid nucleation score rises from -0.462 ± 0.51 to 5.822 ± 0.054.

First: IFSIRFTLCGWPLLCHIMLL
Second: IFTFSIVTSNATGYLW
The amyloid nucleation score of the first is lower: -0.302 ± 0.31 for the first, 2.29 ± 0.12 for the second.

IFTRW and IGACFWRFIFVKLSTNL are within error of each other in amyloid nucleation score: -0.741 ± 0.49 for the first, -0.406 ± 0.36 for the second.

IGATLAPLTMSLNRSSDESS and IGCGGVPKNQCWGPERFLEW are within error of each other in amyloid nucleation score: 0.655 ± 0.64 for the first, -0.132 ± 0.57 for the second.

IGDTI and IGFEIHFMYALE are within error of each other in amyloid nucleation score: 0.302 ± 0.33 for the first, 0.355 ± 1 for the second.

Going from IGGCWLLQMN to IGGVFALHCRMNIAPGSHTL, the amyloid nucleation score rises from 0.369 ± 0.44 to 2.38 ± 0.14.

IGLMRLC and IGRMSYWGCRTLNNSPCGKF are within error of each other in amyloid nucleation score: -0.608 ± 1.2 for the first, -1.22 ± 1.7 for the second.

IHGTMRGYWHMLFQELNIGV and IHQEIVNVNTIVCN are within error of each other in amyloid nucleation score: -0.152 ± 0.54 for the first, -0.147 ± 0.25 for the second.

Going from IHSAYLNAQRKVWATAKFKW to IHVAFHSLSQCGRCVYCSVL, the amyloid nucleation score rises from -0.639 ± 0.35 to 3.25 ± 0.16.

IICISFWSVKLVDHPMVSNG and IICSLW are within error of each other in amyloid nucleation score: 0.726 ± 0.75 for the first, 0.614 ± 0.34 for the second.

Going from IIFWGLCICHPVLPTRGGWE to IIIRRISGGFAVPSYAHLHS, the amyloid nucleation score falls from 7.26 ± 0.084 to 0.53 ± 0.32.

IIKDDLRMCWDGKRYWNSLI and IIQRAM are within error of each other in amyloid nucleation score: 0.713 ± 0.32 for the first, 0.09 ± 0.7 for the second.

IIREFSEGWVISKLDQD and IITMIP are within error of each other in amyloid nucleation score: -0.446 ± 0.3 for the first, -0.514 ± 0.65 for the second.

IIVIIVLLDLDVSWVDYEVM and IIVTSKQSTTYTHLVWERSG are within error of each other in amyloid nucleation score: -0.157 ± 0.78 for the first, -0.629 ± 0.69 for the second.

IIWIRAVPLMTRNEGVCECG and IIWMSRRSSSLNEKGLKFNY are within error of each other in amyloid nucleation score: -0.982 ± 1.8 for the first, -0.548 ± 0.29 for the second.

Going from IIYDLLCYSWRMFWL to IIYNAKE, the amyloid nucleation score falls from 2.27 ± 0.1 to 0.367 ± 0.36.

IKEFRYMLKRYLLWFVDLLL and IKFERAIRSSVGKQRC are within error of each other in amyloid nucleation score: 0.762 ± 0.59 for the first, 0.784 ± 0.71 for the second.

IKMRWISFKCLPYCMFKNRI and IKSVVLS are within error of each other in amyloid nucleation score: -0.355 ± 0.35 for the first, 0.043 ± 0.63 for the second.

First: ILEEYYLCIWLEVAWHICHA
Second: ILENTVCSIFVSVVIANVGL
The amyloid nucleation score of the first is lower: -0.571 ± 0.8 for the first, 1.94 ± 0.53 for the second.

Going from ILESCIWDITRLRWPYGSSW to ILEYWSISKKPYMIVMGGRV, the amyloid nucleation score falls from 0.741 ± 0.21 to 0.15 ± 0.34.

First: ILFSNCSFLKSCYWFK
Second: ILFVG
The amyloid nucleation score of the first is higher: 7.25 ± 0.085 for the first, -0.462 ± 0.42 for the second.

ILGRYNNAVLGVGSEQWSVG and ILIRNIMCSGSVSLSNLGSG are within error of each other in amyloid nucleation score: 0.287 ± 0.46 for the first, -0.134 ± 1 for the second.

ILKELSKPGVQPVVS and ILLELVASTVVLPLIT are within error of each other in amyloid nucleation score: 0.575 ± 0.8 for the first, 0.165 ± 0.43 for the second.

First: ILNFRERL
Second: ILRNDMSATVNM
The amyloid nucleation score of the first is lower: -1.06 ± 0.43 for the first, 0.97 ± 0.17 for the second.

Compared with ILRPSSFNMVALDLNISLPK, ILRTFVSSCVDVGTYSTTKC is lower in amyloid nucleation score: 4.82 ± 0.087 for the first, -1.52 ± 2.4 for the second.

ILSERHWVFELYGLCGWRRE and ILTVLLISMWVMNHLIFLGL are within error of each other in amyloid nucleation score: 0.493 ± 0.52 for the first, -0.563 ± 1.4 for the second.

Going from ILVSYLSLPT to ILYMWWVRPLVQAQENRRRY, the amyloid nucleation score falls from 0.802 ± 0.42 to -0.089 ± 0.39.

Compared with ILYTNRMCLWSKTSNFLPLR, IMAGHFRL is higher in amyloid nucleation score: -0.318 ± 0.29 for the first, 3.69 ± 0.082 for the second.

First: IMLLAWQLSKMSSFVCKSTR
Second: INFARPVTILTYATFSVFGN
The amyloid nucleation score of the first is lower: 0.16 ± 0.74 for the first, 4.9 ± 0.082 for the second.

ININGNVY and INNGIQ are within error of each other in amyloid nucleation score: 0.849 ± 1.1 for the first, -0.047 ± 0.96 for the second.

Substance INNHKIDQTML has an amyloid nucleation score of -0.541 ± 0.84.

For IFILD, the amyloid nucleation score was “inactive”.
With IHVTGCYLEPSAHF the amyloid nucleation score was “inactive”.
With IIEFML the amyloid nucleation score was “inactive”.
In the case of IIGSEARLD, the amyloid nucleation score is reported as “inactive”.
With IILRFVCDI the amyloid nucleation score was “inactive”.
With ILLMSNYYAVRQEEFDQLPV the amyloid nucleation score was “inactive”.
In the case of IMETHLFLTETGNLLSKMGD, the amyloid nucleation score is reported as “inactive”.
